Source: paper PMC4384708, “Molecular imaging of angiogenesis after myocardial infarction by ^111In-DTPA-cNGR and ^99mTc-sestamibi dual-isotope myocardial SPECT” (EJNMMI Research, 2015)
Bridge positions count the residues as written; N and C are the ends. Peptide text beside a SMILES is read from it. * marks the point of attachment. X1 = N[C@@H](CSC1CC(=O)N(CC2CCC(C(=O)*)CC2)C1=O)C(=O)NCCCC[C@@H](C(=O)O)N(CCN(CC(=O)O)CC(=O)O)CCN(CC(=O)O)CC(=O)O

Legend:
in vivo [1] = settings: male, Swiss, mouse, heart, iv, mean ± S.E.M.
Method: (§1) MI was induced in 10- to 12-week old male Swiss mice by ligation of the left anterior descending coronary artery (LAD) (n = 7), as previously described. The angiogenesis imaging protocol was performed 7 days after the LAD ligation. A group of non-operated male Swiss mice (n = 5) was used as control. A variable number of animals were available for analysis per experiment. For SPECT scans, seven MI mice and five control mice were used while for biodistribution purposes ≥5 MI mice and ≥4 control mice were used. Furthermore, a group of six 10- to 12-week old male Swiss mice were bilaterally, subcutaneously implanted in the flanks with Matrigel (Table 1). […] All animals were held under the guidelines of the animal care facility (Maastricht University). All animal experiments were approved by the Committee for Animal Welfare of Maastricht University.
Mice were anesthetised with isoflurane (induction 2.5%; maintenance; 1.5%), a catheter was placed in the tail vein and the animals were positioned in the micro-SPECT camera (MiLabs, Utrecht, The Netherlands).
U-SPECT-II reconstruction software version 2.38 (MiLabs, Utrecht, The Netherlands) was used to reconstruct images. ^99mTc and ^111In images were reconstructed by selecting the photopeak (PP) and background (BG) windows as indicated in Figure 1.
To allow quantification of radiotracer uptake in vivo, conversion factors (CFs) were determined for the 0.6-mm collimator system in a representative phantom (20 ml) for ^99mTc and/or ^111In. During the SPECT reconstruction, the total amount of counts was distributed over the different voxels, resulting in a counts/voxel expression for the average concentration of counts. Taking into account the voxel volume (Vv), the CFs are calculated using equation (a):a ConversionfactorMBq=ActivityconcentrationMBq/ml/SPECTcountspervoxel/Vvml
(§2) The PMOD 2.95 cardiac tool PCARD (PMOD Technologies, Zürich, Switzerland) was used to segment the heart in the 17-segment model according to the American Heart Association (AHA) guidelines. For both the ^99mTc-sestamibi and ^111In-DTPA-cNGR images, the uptake was measured for each segment and expressed as mean standardised uptake value (SUVmean) using equation (b).b SUV=SPECTcountspervoxel×CF/VvMBq/ml×Bodyweightg/InjecteddoseMBq
For body weight, we assumed that 1 g of body weight equalled 1 ml.

in vivo [2] = settings: 2 h p.i., gamma counting, mean ± SEM; for urinary excretion (urine radioactivity): i.v.; for tissue uptake at 2 h: male, Swiss, mouse, iv, total radioactivity
Method: In order to quantify the absolute uptake of ^111In-DTPA-cNGR in the different heart pieces, gamma counting was performed using an automated NaI(Tl) gamma counter (Wallac Wizard, Turku, Finland). Additionally, we dissected the vital organs of the mice to study overall biodistribution. The uptake of ^111In-DTPA-cNGR was determined 2 h post-injection (p.i.) for both MI (n ≥ 5) and control animals (n ≥ 4). Data were expressed as percentage of injected dose per gram tissue (%ID/g). Urinal excretion was expressed as %ID.

[3] = Matrigel plug model, ex vivo SPECT of explanted Matrigels; assay type: in vivo; settings: male, Swiss, mouse, total radioactivity, six mice, mean ± SEM
Method: as §1, §2

Q: With `CC(=O)N[C@H]1CSSC[C@@H](C(=O)NCC(=O)NCC(=O)N[C@@H](CCCCNC(=O)C2CCC(CN3C(=O)CC(SC[C@H](N)C(=O)NCCCC[C@@H](C(=O)O)N(CCN(CC(=O)O)CC(=O)O)CCN(CC(=O)O)CC(=O)O)C3=O)CC2)C(N)=O)NC(=O)[C@H](CCCNC(=N)N)NC(=O)CNC(=O)[C@H](CC(N)=O)NC1=O` (stereo partly drawn) [^111In-DTPA-cNGR, metal not drawn] (Ac-CNGRCGGK(X1)-NH2; disulfide 1-5) as the compound, how does the SUV (in vivo [1]; AHA segment 5 (basal inferolateral), segment 5. Basal inferolateral, MI mice n = 7, 7 days after LAD ligation, in vivo SPECT) read?
A: 0.23 ± 0.03 SUV

Q: And the SUV (in vivo [1]; AHA segment 5 (basal inferolateral), segment 5. Basal inferolateral, healthy control mice n = 5, in vivo SPECT)?
A: 0.14 ± 0.04 SUV

Q: And the SUV (in vivo [1]; segment 1 basal anterior, total radioactivity, healthy control mice n = 5, in vivo SPECT)?
A: 0.16 ± 0.05 SUV

Q: What about the SUV (in vivo [1]; segment 1 basal anterior, total radioactivity, segment 1. Basal anterior, MI mice n = 7, 7 days after LAD ligation, in vivo SPECT) of the same compound?
A: 0.24 ± 0.04 SUV

Q: What about the SUV (in vivo [1]; segment 2 basal anteroseptal, total radioactivity, healthy control mice n = 5, in vivo SPECT) of the same compound?
A: 0.16 ± 0.05 SUV

Q: And the SUV (in vivo [1]; segment 2 basal anteroseptal, total radioactivity, segment 2. Basal anteroseptal, MI mice n = 7, 7 days after LAD ligation, in vivo SPECT)?
A: 0.21 ± 0.03 SUV

Q: And the SUV (in vivo [1]; segment 3 basal inferoseptal, total radioactivity, healthy control mice n = 5, in vivo SPECT)?
A: 0.13 ± 0.06 SUV

Q: And the SUV (in vivo [1]; segment 3 basal inferoseptal, total radioactivity, segment 3. Basal inferoseptal, MI mice n = 7, 7 days after LAD ligation, in vivo SPECT)?
A: 0.2 ± 0.02 SUV

Q: And the SUV (in vivo [1]; segment 4 basal inferior, total radioactivity, healthy control mice n = 5, in vivo SPECT)?
A: 0.15 ± 0.05 SUV

Q: And the SUV (in vivo [1]; segment 4 basal inferior, total radioactivity, segment 4. Basal inferior, MI mice n = 7, 7 days after LAD ligation, in vivo SPECT)?
A: 0.23 ± 0.03 SUV

Q: And the SUV (in vivo [1]; segment 6 basal anterolateral, total radioactivity, healthy control mice n = 5, in vivo SPECT)?
A: 0.18 ± 0.06 SUV

Q: What about the SUV (in vivo [1]; segment 6 basal anterolateral, total radioactivity, segment 6. Basal anterolateral, MI mice n = 7, 7 days after LAD ligation, in vivo SPECT) of the same compound?
A: 0.26 ± 0.04 SUV

Q: What about the SUV (in vivo [1]; segment 7 mid anterior, total radioactivity, healthy control mice n = 5, in vivo SPECT) of the same compound?
A: 0.15 ± 0.05 SUV

Q: And the SUV (in vivo [1]; segment 7 mid anterior, total radioactivity, segment 7. Mid anterior, MI mice n = 7, 7 days after LAD ligation, in vivo SPECT)?
A: 0.21 ± 0.02 SUV

Q: What about the SUV (in vivo [1]; segment 8 mid anteroseptal, total radioactivity, healthy control mice n = 5, in vivo SPECT) of the same compound?
A: 0.14 ± 0.06 SUV

Q: What about the SUV (in vivo [1]; segment 8 mid anteroseptal, total radioactivity, segment 8. Mid anteroseptal, MI mice n = 7, 7 days after LAD ligation, in vivo SPECT) of the same compound?
A: 0.2 ± 0.02 SUV

Q: What about the SUV (in vivo [1]; segment 9 mid inferoseptal, total radioactivity, healthy control mice n = 5, in vivo SPECT) of the same compound?
A: 0.12 ± 0.06 SUV

Q: What about the SUV (in vivo [1]; segment 9 mid inferoseptal, total radioactivity, segment 9. Mid inferoseptal, MI mice n = 7, 7 days after LAD ligation, in vivo SPECT) of the same compound?
A: 0.18 ± 0.03 SUV

Q: What about the SUV (in vivo [1]; segment 10 mid inferior, total radioactivity, healthy control mice n = 5, in vivo SPECT) of the same compound?
A: 0.12 ± 0.05 SUV

Q: What about the SUV (in vivo [1]; segment 10 mid inferior, total radioactivity, segment 10. Mid inferior, MI mice n = 7, 7 days after LAD ligation, in vivo SPECT) of the same compound?
A: 0.17 ± 0.03 SUV

Q: What about the SUV (in vivo [1]; segment 11 mid inferolateral, total radioactivity, healthy control mice n = 5, in vivo SPECT) of the same compound?
A: 0.11 ± 0.04 SUV

Q: What about the SUV (in vivo [1]; segment 11 mid inferolateral, total radioactivity, segment 11. Mid inferolateral, MI mice n = 7, 7 days after LAD ligation, in vivo SPECT) of the same compound?
A: 0.2 ± 0.03 SUV

Q: And the SUV (in vivo [1]; segment 12 mid anterolateral, total radioactivity, healthy control mice n = 5, in vivo SPECT)?
A: 0.15 ± 0.05 SUV

Q: And the SUV (in vivo [1]; segment 12 mid anterolateral, total radioactivity, segment 12. Mid anterolateral, MI mice n = 7, 7 days after LAD ligation, in vivo SPECT)?
A: 0.24 ± 0.01 SUV

Q: And the SUV (in vivo [1]; segment 13 apical anterior, total radioactivity, healthy control mice n = 5, in vivo SPECT)?
A: 0.11 ± 0.03 SUV

Q: And the SUV (in vivo [1]; segment 13 apical anterior, total radioactivity, segment 13. Apical anterior, MI mice n = 7, 7 days after LAD ligation, in vivo SPECT)?
A: 0.21 ± 0.02 SUV

Q: And the SUV (in vivo [1]; segment 14 apical septal, total radioactivity, healthy control mice n = 5, in vivo SPECT)?
A: 0.12 ± 0.04 SUV

Q: What about the SUV (in vivo [1]; segment 14 apical septal, total radioactivity, segment 14. Apical septal, MI mice n = 7, 7 days after LAD ligation, in vivo SPECT) of the same compound?
A: 0.2 ± 0.03 SUV

Q: And the SUV (in vivo [1]; segment 15 apical inferior, total radioactivity, healthy control mice n = 5, in vivo SPECT)?
A: 0.1 ± 0.03 SUV

Q: What about the SUV (in vivo [1]; segment 15 apical inferior, total radioactivity, segment 15. Apical inferior, MI mice n = 7, 7 days after LAD ligation, in vivo SPECT) of the same compound?
A: 0.18 ± 0.03 SUV

Q: And the SUV (in vivo [1]; segment 16 apical lateral, total radioactivity, healthy control mice n = 5, in vivo SPECT)?
A: 0.14 ± 0.04 SUV

Q: What about the SUV (in vivo [1]; segment 16 apical lateral, total radioactivity, segment 16. Apical lateral, MI mice n = 7, 7 days after LAD ligation, in vivo SPECT) of the same compound?
A: 0.22 ± 0.02 SUV

Q: What about the SUV (in vivo [1]; segment 17 apex, total radioactivity, healthy control mice n = 5, in vivo SPECT) of the same compound?
A: 0.1 ± 0.03 SUV

Q: What about the SUV (in vivo [1]; segment 17 apex, total radioactivity, segment 17. Apex, MI mice n = 7, 7 days after LAD ligation, in vivo SPECT) of the same compound?
A: 0.2 ± 0.03 SUV

Q: And the “urinary excretion (urine radioactivity)” value (in vivo [2]; MI mice (n ≥ 5))?
A: 82.29 ± 4.87 %ID

Q: And the “urinary excretion (urine radioactivity)” value (in vivo [2]; healthy control mice (n ≥ 4))?
A: 92.5 ± 1.17 %ID

Q: And the tissue uptake at 2 h (in vivo [2]; heart, apical region, uptake in the apical region of the heart, infarcted hearts, MI mice (n ≥ 5))?
A: 0.16 ± 0.0542 %ID/g

Q: What about the tissue uptake at 2 h (in vivo [2]; heart, apical region, uptake in the apical region of the heart, non-infarcted hearts, healthy control mice (n ≥ 4)) of the same compound?
A: 0.02 ± 0.005 %ID/g

Q: And the tissue uptake at 2 h (in vivo [2]; kidney, kidney uptake, MI mice (n ≥ 5))?
A: 2.73 ± 0.42 %ID/g

Q: And the tissue uptake at 2 h (in vivo [2]; kidney, kidney uptake, healthy control mice (n ≥ 4))?
A: 4.04 ± 0.41 %ID/g

Q: What about the SUV ([3]; explanted control (PBS) Matrigel plug, control (PBS) Matrigels) of the same compound?
A: 0.000222 SUV

Q: And the SUV ([3]; explanted hFGF2-supplemented Matrigel plug, hFGF2-supplemented Matrigels)?
A: 0.000824 SUV
